Experimental data published in the supplement of paper PMC10567573.

B1: INTS3 (parent)
chain: YPPLEGHVRQGVFSSLNHIVEKRV
B2: MIA2 (parent)
chain: NSISSDKEATVPCTEILTEKKDTI

Variants of: B1
Assay: protein stability index of a GFP-peptide fusion (GPS, HEK-293T) (PSI 1-6); higher = more stable
Details: c terminus: a fixed tail appended
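Note: lentivirally expressed fusions sorted by FACS into six bins by GFP to DsRed ratio, PSI derived from sequencing read proportions per bin multiplied by bin number.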

Protein stability index: each site, then its substitutions
V24: R 2.9, I 2.69, D 3.16, A 3.31, H 2.29, T 2.09, E 3.32, P 2.74, Q 2.57, Y 1.95, W 2.68, L 2.78, M 2.06, S 2.58, K 2.4, F 1.99, C 2.01, G 3.08, N 2.83
V12: D 3.44, C 2.21, H 2.53, G 2.54, E 3.46, K 3.63, M 2.36, I 2.37, F 2.69, P 3.19, Y 2.54, L 3.31, N 3.15, T 3.27, A 2.58, R 3.5, Q 3.95, S 2.11
E21: N 2.21, D 3.35, S 2.05, L 2.29, F 2.72, R 2.45, K 2.26, Y 2.23, M 2.75, W 1.95, P 2.26, T 2.54, Q 1.79, A 2.23, I 1.74, G 2.68, H 2.86, C 2.23, V 2.48
H18: K 2.86, R 3.42, I 1.99, T 2.16, A 1.86, W 1.39, S 2.65, F 1.97, C 2.01, M 3.03, P 3.04, E 2.91, Q 2.76, V 1.36, L 1.77, N 2.78, D 3.39, Y 1.83
I19: H 2.65, M 3.33, L 1.83, G 2.57, T 2.88, K 2.37, P 2.47, D 3.11, Q 2.52, F 2.31, S 2.53, A 3.17, V 2.52, N 3.23, Y 2.07, R 3.04, W 3.41
K22: E 2.63, C 1.43, Y 1.34, W 2.14, D 2.2, R 2.75, Q 2.23, A 2.29, G 1.92, N 2.46, S 2.09, T 2.23, L 2.33, H 2.65, M 1.73, F 3.12, P 3.01
N17: E 2.63, I 1.86, A 2.48, L 2.46, P 2.4, G 2.46, C 1.86, K 2.28, R 2.44, D 3.07, M 1.64, S 2.29, H 2.21, Q 2.34, W 2.26, V 1.99, T 2.04, Y 1.71, F 1.78
V20: G 1.76, M 2.7, N 2.34, H 2.36, T 2.48, Y 2.27, W 2.02, C 2, E 3.08, I 2.04, P 2.64, L 2.2, D 3.13, Q 2.72, R 2.9, S 2.29, K 2.43, F 2.78, A 2.7
Q10: R 2.26, F 2.62, S 3.33, W 1.49, I 1.62, T 1.83, G 2.82, C 2.73, H 2.69, N 1.96, Y 1.99, L 1.72, P 2.3, A 2.19, V 2.28, D 3.18, M 1.98
R23: E 2.68, N 2.6, W 2.62, S 2.67, Y 2.48, F 1.81, A 2.19, K 2.7, P 2.39, T 2.53, H 2.4, Q 2.83, L 1.98, C 2.22, G 2.2, D 2.83, V 1.85, M 1.7, I 2.17
F13: L 3.77, N 3.46, S 3.65, A 3.55, Q 3.16, C 2.98, E 3.99, D 4.31, Y 2.84, I 3.6, W 2.4, T 2.98, K 3.16, R 3.32, M 3.36, H 4.25, G 3.33, V 3.7
S15: F 2.32, Q 2.28, C 1.69, L 1.86, Y 1.33, K 2.31, E 2.17, D 2.95, G 2.58, I 1.64, P 1.54, N 2.4, R 2.12, A 2.23, V 2.92, M 2.43
R9: I 1.38, Y 1.92, S 2.51, T 2.13, L 2.07, H 2.96, C 2.06, F 2.09, N 2.75, D 3.42, Q 3.28, V 3.14, M 2.47, W 1.72, P 2.77, K 2.94, E 3.52
S14: D 3.52, Q 3.01, R 3.27, E 2.73, F 1.79, G 2.61, P 2.22, K 2.6, Y 1.66, A 2.75, V 2.29, H 2.63, C 1.5, L 1.73, N 2.41, M 2.07, T 2.56
G11: S 2.54, F 1.8, L 1.85, P 3.3, M 1.79, Q 2.35, I 1.87, C 1.48, R 2.18, V 2.33, E 2.88, A 2.31, H 2.29, K 2.93, W 1.34, T 2.27, Y 1.85, D 2.59, N 2.29
L16: G 3.18, E 3.65, Q 3.01, M 2.39, S 2.49, K 3.35, T 2.77, D 4.2, A 3.33, Y 2.22, W 2.1, C 2.24, I 2.31, V 3.1, R 4.03, N 3.3, P 2.93, H 2.94, F 2.14

Variants of: B2
Assay: as above
Details: c terminus: a fixed tail appended

Protein stability index of substitutions, site by site:
S2: Y 4.49, C 5.27, V 5.46, G 5.37, R 5.26, H 5.09, P 5.31, N 5.66, A 5.52, F 5.37, L 5.37, D 5.59, T 5.1, W 5.05, I 5.32, M 5.54, E 5.67, K 5.19, Q 5.33
N1: S 5.62, W 4.89, P 5.68, K 5.76, C 5.27, Q 5.44, I 4.79, M 5.33, G 5.24, E 5.73, D 5.25, Y 4.81, R 5.48, H 5.44, A 5.42, F 4.77, T 5.05, V 5, L 5.09
I3: A 5.61, K 5.71, D 5.44, H 5.43, G 5.54, F 5.38, C 5.33, E 5.51
